Experimental data published in patent publication US20240228660A1 (IP2IPO INNOVATIONS, published 2024).

target: human full-length VWF (human, UniProt P04275 764-2813); test: SPR, Biacore T200, antibody captured on Protein A, full-length VWF as analyte, single-cycle kinetics
Protocol: Antibodies were captured on Protein A sensor chip. The system was purged using running buffer (10 mM HEPES pH 7.4, 300 mM NaCl, 3 mM EDTA, 0.05% P20) and a series S Protein A chip was docked in the Biacore T200. The surface was conditioned with 10 mM glycine-HCl pH 1.5 regeneration solution (3 injections). Each antibody was diluted to ˜0.8 μg/ml in running buffer to capture ˜350 RU on flow cells 2, 3 and 4 (flow cell 1 used as in-line reference cell). Single-cycle kinetic analysis of human full-length VWF binding to antibodies was performed using the following parameters:

| Binder | Kd | koff | kon |
| --- | --- | --- | --- |
| 4-H3_H8_VL-par (antibody, human IgG1, kappa, V domains shown, also called 4-H3_H8 (hIgG1)) VH: QQLVESGGGVVQPGRSLRLSCAASGIDLTSNAMNWVRQAPGKGLEWIGGIYGHDTSYYAAWAKGRFTISRDSNTVYLQMNSLRAEDTATYFCARGFIYFDIWGQGTLVTVSS VL: AYDMTQTPPSLSASVGETVRIRCLASEDIASGISWYQQKPGKPPTLLIYGASNLESGVPPRFSGSGSGTDYTLTIGGVQAEDAATYYCLGGYSFSSNGLTFGAGTKVEIKT | 0.0109 nM | 5.99e-07 s⁻¹ | 54900 M⁻¹ s⁻¹ |
| 1-A2_H2_VL-par (antibody, human IgG1, kappa, V domains shown, also called 1-A2_H2 (hIgG1)) VH: QQLVESGGGVVQPGRSLRLSCAASGIDLTSNAMNWVRQAPGKGLEWIGGIYGHDTSYYAAWAKGRFTISRDSNTVYLQMNSLRAEDTATYFCARGFIYFDIWGQGTLVTVSS VL: AIEMTQTPPSLSASVGETVRIRCLASEDIYSGISWYQQKPGKPPTLLIYGASNLESGVPPRFSGSGSGTDYTLTIGGVQAEDAATYYCLGGHSHSTTDLTFGAGTKVEIKT | 0.318 nM | 7.8e-06 s⁻¹ | 24500 M⁻¹ s⁻¹ |
| 1-A2_H0_VL-par (antibody, human IgG1, kappa, V domains shown, also called 1-A2_H0 (hIgG1)) VH: QVQLVESGGGVVQPGRSLRLSCAASGFTFSSNAMNWVRQAPGKGLEWVAGIYGHDTSYYAAWAKGRFTISRDNSKNTLYLQMNSLRAEDTAVYYCARGFIYFDIWGQGTLVTVSS VL: AIEMTQTPPSLSASVGETVRIRCLASEDIYSGISWYQQKPGKPPTLLIYGASNLESGVPPRFSGSGSGTDYTLTIGGVQAEDAATYYCLGGHSHSTTDLTFGAGTKVEIKT | 0.0176 nM | 6.18e-07 s⁻¹ | 35100 M⁻¹ s⁻¹ |
| 1-A2_H1_VL-par (antibody, human IgG1, kappa, V domains shown, also called 1-A2_H1 (hIgG1)) VH: QVQLVESGGGVVQPGRSLRLSCAASGIDLTSNAMNWVRQAPGKGLEWVAGIYGHDTSYYAAWAKGRFTISRDNSKNTLYLQMNSLRAEDTAVYYCARGFIYFDIWGQGTLVTVSS VL: AIEMTQTPPSLSASVGETVRIRCLASEDIYSGISWYQQKPGKPPTLLIYGASNLESGVPPRFSGSGSGTDYTLTIGGVQAEDAATYYCLGGHSHSTTDLTFGAGTKVEIKT | 0.0238 nM | 9.49e-07 s⁻¹ | 39800 M⁻¹ s⁻¹ |
| 4-H3_H6_VL-par rep (antibody, human IgG1, kappa, also called 4-H3_H6 (hIgG1)) heavy chain: not shown light chain: AYDMTQTPPSLSASVGETVRIRCLASEDIASGISWYQQKPGKPPTLLIYGASNLESGVPPRFSGSGSGTDYTLTIGGVQAEDAATYYCLGGYSFSSNGLTFGAGTKVEIKTVAAPSVFIFPPSDEQLKSGTASVVCLLNNFYPREAKVQWKVDNALQSGNSQESVTEQDSKDSTYSLSSTLTLSKADYEKHKVYACEVTHQGLSSPVTKSFNRGEC | 0.00655 nM | 3.63e-07 s⁻¹ | 55300 M⁻¹ s⁻¹ |
| 1-A2_VH-par_L1 (antibody, human IgG1, kappa, V domains shown, also called 1-A2_L1 (hIgG1K)) VH: SQSVEESGGRLVPPGTPLTLTCTVSGIDLTSNAMNWVRQAPGKGLEWIGGIYGHDTSYYAAWAKGRFTISRTSTTVDLKMTRPTTDDTATYFCARGFIYFDIWGTGTLVTISS VL: DIQMTQSPSSLSASVGDRVTITCLASEDIYSGISWYQQKPGKAPKLLIYGASNLESGVPSRFSGSGSGTDYTLTISSLQPEDFATYYCLGGHSHSTTDLTFGGGTKVEIKT | 0.00707 nM | 1.81e-07 s⁻¹ | 25600 M⁻¹ s⁻¹ |
| 4-H3_H8_L0 (antibody, human IgG1, kappa, V domains shown, humanised, human IgG1 kappa) VH: QQLVESGGGVVQPGRSLRLSCAASGIDLTSNAMNWVRQAPGKGLEWIGGIYGHDTSYYAAWAKGRFTISRDSNTVYLQMNSLRAEDTATYFCARGFIYFDIWGQGTLVTVSS VL: DIQMTQSPSSLSASVGDRVTITCLASEDIASGISWYQQKPGKAPKLLIYGASNLESGVPSRFSGSGSGTDFTLTISSLQPEDFATYYCLGGYSFSSNGLTFGGGTKVEIKT | 0.0125 nM | 5.66e-07 s⁻¹ | 45200 M⁻¹ s⁻¹ |
| 1-A2_VH-par_L0 (antibody, human IgG1, kappa, V domains shown, also called 1-A2_L0 (hIgG1K)) VH: SQSVEESGGRLVPPGTPLTLTCTVSGIDLTSNAMNWVRQAPGKGLEWIGGIYGHDTSYYAAWAKGRFTISRTSTTVDLKMTRPTTDDTATYFCARGFIYFDIWGTGTLVTISS VL: DIQMTQSPSSLSASVGDRVTITCLASEDIYSGISWYQQKPGKAPKLLIYGASNLESGVPSRFSGSGSGTDFTLTISSLQPEDFATYYCLGGHSHSTTDLTFGGGTKVEIKT | 0.0125 nM | 7.44e-07 s⁻¹ | 59600 M⁻¹ s⁻¹ |
| 4-H3_VH-par_L0 (antibody, human IgG1, kappa, V domains shown, also called 4-H3_L0 (hIgG1K)) VH: SQSLEESGGRLVPPGTPLTLTCTVSGIDLTSNAMNWVRQAPGKGLEWIGGIYGHDTSYYAAWAKGRFTISRTSTTVDLKMTRPTTDDTATYFCARGFIYFDIWGTGTLVTISS VL: DIQMTQSPSSLSASVGDRVTITCLASEDIASGISWYQQKPGKAPKLLIYGASNLESGVPSRFSGSGSGTDFTLTISSLQPEDFATYYCLGGYSFSSNGLTFGGGTKVEIKT | 0.00173 nM | 8.46e-08 s⁻¹ | 48800 M⁻¹ s⁻¹ |
| 1-A2_H2_L0 (antibody, human IgG1, kappa, V domains shown, humanised, human IgG1 kappa) VH: QQLVESGGGVVQPGRSLRLSCAASGIDLTSNAMNWVRQAPGKGLEWIGGIYGHDTSYYAAWAKGRFTISRDSNTVYLQMNSLRAEDTATYFCARGFIYFDIWGQGTLVTVSS VL: DIQMTQSPSSLSASVGDRVTITCLASEDIYSGISWYQQKPGKAPKLLIYGASNLESGVPSRFSGSGSGTDFTLTISSLQPEDFATYYCLGGHSHSTTDLTFGGGTKVEIKT | 0.0969 nM | 3.5e-06 s⁻¹ | 36100 M⁻¹ s⁻¹ |
| 4-H3_VH-par_L1 (antibody, human IgG1, kappa, V domains shown, also called 4-H3_L1 (hIgG1K)) VH: SQSLEESGGRLVPPGTPLTLTCTVSGIDLTSNAMNWVRQAPGKGLEWIGGIYGHDTSYYAAWAKGRFTISRTSTTVDLKMTRPTTDDTATYFCARGFIYFDIWGTGTLVTISS VL: DYQMTQSPSSLSASVGDRVTITCLASEDIASGISWYQQKPGKAPKLLIYGASNLESGVPSRFSGSGSGTDYTLTISSLQPEDFATYYCLGGYSFSSNGLTFGGGTKVEIKT | 0.00143 nM | 1.75e-08 s⁻¹ | 12300 M⁻¹ s⁻¹ |
| 4-H3_H8_L1 (antibody, human IgG1, kappa, V domains shown, humanised, human IgG1 kappa) VH: QQLVESGGGVVQPGRSLRLSCAASGIDLTSNAMNWVRQAPGKGLEWIGGIYGHDTSYYAAWAKGRFTISRDSNTVYLQMNSLRAEDTATYFCARGFIYFDIWGQGTLVTVSS VL: DYQMTQSPSSLSASVGDRVTITCLASEDIASGISWYQQKPGKAPKLLIYGASNLESGVPSRFSGSGSGTDYTLTISSLQPEDFATYYCLGGYSFSSNGLTFGGGTKVEIKT | 0.0173 nM | 9.15e-07 s⁻¹ | 52800 M⁻¹ s⁻¹ |
| 1-A2_H2_L1 (antibody, human IgG1, kappa, V domains shown, humanised, human IgG1 kappa) VH: QQLVESGGGVVQPGRSLRLSCAASGIDLTSNAMNWVRQAPGKGLEWIGGIYGHDTSYYAAWAKGRFTISRDSNTVYLQMNSLRAEDTATYFCARGFIYFDIWGQGTLVTVSS VL: DIQMTQSPSSLSASVGDRVTITCLASEDIYSGISWYQQKPGKAPKLLIYGASNLESGVPSRFSGSGSGTDYTLTISSLQPEDFATYYCLGGHSHSTTDLTFGGGTKVEIKT | 0.00203 nM | 3.84e-08 s⁻¹ | 19000 M⁻¹ s⁻¹ |
| 1-A2_VH-par_VL-par (antibody, human IgG1, kappa, also called 1-A2_parental (hIgG1)) heavy chain: not shown light chain: AIEMTQTPPSLSASVGETVRIRCLASEDIYSGISWYQQKPGKPPTLLIYGASNLESGVPPRFSGSGSGTDYTLTIGGVQAEDAATYYCLGGHSHSTTDLTFGAGTKVEIKTVAAPSVFIFPPSDEQLKSGTASVVCLLNNFYPREAKVQWKVDNALQSGNSQESVTEQDSKDSTYSLSSTLTLSKADYEKHKVYACEVTHQGLSSPVTKSFNRGEC | 0.000125 nM |  |  |
| 4-H3_VH-par_VL-par (antibody, human IgG1, kappa, also called 4-H3_parental (hIgG1)) heavy chain: not shown light chain: AYDMTQTPPSLSASVGETVRIRCLASEDIASGISWYQQKPGKPPTLLIYGASNLESGVPPRFSGSGSGTDYTLTIGGVQAEDAATYYCLGGYSFSSNGLTFGAGTKVEIKTVAAPSVFIFPPSDEQLKSGTASVVCLLNNFYPREAKVQWKVDNALQSGNSQESVTEQDSKDSTYSLSSTLTLSKADYEKHKVYACEVTHQGLSSPVTKSFNRGEC | 0.0717 nM |  |  |
